Experiment: soluble fraction after stress (log2 fold change); higher = more stays soluble; pooled small domains, quantitative proteomics
Settings: stress: 50 degC
Method in brief: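 Pooled custom libraries of small protein domains were each held under stress at 50°C. The read-out, high-throughput quantitative proteomics, tracked how much of each protein stayed soluble. This is reported as a base-two log fold change used to indicate aggregation propensity. Higher values mean more protein remains in solution.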

Sequence	soluble fraction (log2)
HMKKNLELGLLPHEVKSILGEPDFIDTITDIDGIRYDMWSYTKLNVTKRLYFEDLFLVRMEE	-1.43
HMDPSKLVEVQEPVSMKALSEGLGIKVTELIATFAFKLKIGGKNINSMLSNDEVELVALDLERNIKVV	0.164
HMITDSSEIEAMVDALVKENPGQAEQYKDGNMKVAGWFIGQIMKVSKGKANPQLVGDLLKKKLG	0.353
HMENPVPVIITDQNFQPLLWKNVGVPTDTIFHELSPENQKKLENLMKTMVQMPLTDDGRISGYAYYSK	-0.195
HMGHYGQMTRDLIEKAKTYEEGEEKAALVLTIANLMKRHYLTWNRATVENTLIAEQLKEMSEGALTLPEDV	-0.51
HMKNFAPVWGEEGAEFGKEVDTGFRLRIVEKEKDVNDLFEVIQKHTIQSQWKPGSTGTESIYKRI	0.37
HMEGRTVMATTAVNVRSGPGTSYKILGVLYPGHTAQQIGNTRYGWAQVTWKGHTAYIAARYLRDS	-2.41
HMNKMIIELGEKLKALRTENHLRQDQVARLVNVEKSSISMYETGMRQPSYTTLVRLADVFNVTTDYLLGRK	-2.24
HMFTIGENIRDLRLERAITQEQLAEQLNVSAPAVSKWERGEAYPDITLVPKLAEILGVSTDKLFGVD	-0.0643
HMENWMPNLVNQDKRLAINTLRELGFTEEAGNLVIREETSEDVTKDYVISTDPVAETDLADVEKVTLVVSS	0.0767
HMENFSTLFSRLKEERGLSNKQISSFTGAPIKEVKKWESGMGIPTEKRIVAALEGILGSEISKAI	-0.0124
HMVLPELRLQGLPTAVLRLINRATALADDYRRLMEIAEDGRIDEWEAPEFERISENIQRVIAAGFEVL	0.0167
HMAGSTAASKHALALLNTARHSIRDGNLTSAAAEIKQALATSQEQIVITEARSLMTAMEARATTRRATVLQ	-0.168
HMVLIQNEDVKDISNYPLLSSVPVFDVFNNKMIIPTFNKDSFNPLIYNFNFNSKRRLIYRVDNTNYLIVIK	0.0177
HMAGEDPANLELMRLMDEEYMEHPTKGVLGMVDFLRALGILTGPKRVRRLLRKMGIMAIYPK	-0.0379
HMRLHSSGEDYLKAIFILEAQHSSVRSVEVAEYMNVSKASVSHAVALLKKNGFLKMNQDYDLTER	0.0124
HMKPQKRYLFEEVLTFLKHNSEKSFNYKQLGAAMEISNESDRFTLLETLEELKHQGFVVEKEIGKYQAKE	-0.527
HMKKYDIKEAQEIAEINRIPGLVTTSHGRRVYFDPKIMQYVSEEQIVKKYGQKTVKMLDQWYVSNILNK	-0.0388
HMDDAIAEKTGGAVSSVNQRQAILDHIREAYGIELESLRSTDIERYLDDPEIPEPVKDILRDRLRGAK	0.181

Sequence	soluble fraction (log2)
HMLIVLKPNVSQEEIDHIVDKIRSLSLEPHVSTGVQRTIITVIGDEDVIREQPLEALAGVESVKSILKP	-0.0145
HMNDAEEKAEAIEGVKNFMANMEKTDIDFKSKESVLLEQVEEIRKNYPVAQWPVIVKQLYNNIGRL	0.159
HMEITTLTGVLGAGRLDSALAAALPQYSRARIQALISDAALRINGQVVADAGSKKMSGQTFELNIPAPVP	-0.31
HMERRDEINSVVSRYVSAITEGKYDLAEVDETGKLRVQTEGREVLPEALSRGTLEQFYFAFRMAVGSI	-0.118
HMLETIDIFKVTGGEPFLSKDFLEILDLAIEKDLAKNITLMITTNASKFVKKILDKFIHFKRVEFTVS	0.0202
HMVEPIEESISQLSLLLQSLYEDGKSEVSFEELIRSDRSRVSLFLALLFMAQRGNVYLEQEELFGDLRVKN	0.0123
HMKNHIEERRKARGMTQQQLASELGVSRQTIISLENGKYNPSILLAHSIARLFGERIEDIFILR	-1.6
HMQILVEGVEANQRLDLFLRARLTEFSRSRIQGLVKNGNVLVNGNIARQAYLVQVGDKIELDVPEPVA	-0.487
HMSMLSQERQSLILDIIKEQGSVTVTRLTEILQSSESTVRRDLSYLASKGKINKVHGGATALG	-0.206
HMRDLAEAETILDALPTRLRKIVRWRHLEGLSQTEIAARLEISQMHVSRLYRRAISMIHASLADD	-0.0123
HMLADIGGRIADLRREVGLTQGELAEKADISVVHLSNIELGKKTPGLSTLIRIAEALDVATDWILQA	-1.02
HMKYLREEDYLPIGSIIRLDDRNFRVDHVNFMFKSVSLQDMDLTNSGQPIFRSESLPHIRELYEQQQNELV	-1.19
HMYPIYDYISNMYLGKHLNAGMSLEEARGIMDEMLEKLLFDVPEEYHIDRDHFYEYLKKYYTERFSA	-1.81
HMSSSKVAISQFEELVDQGQVREVVIEGSTATGTTAAGRRFAAEIPPGGMELFLSKLDDAGTTYEYSPP	≥ 0.62
HMNQRQKQLLSILEQQGDWMKGKALATLLAVSDRTIRSDIEKINREVEGSILSHPHKGYLLSVENRQIAET	0.256
HMAALKVAVLTVSDTRTQETDTSGAFLEGALREAGHEIADRQIVIDDVYQLRAIVSQWIADPEVEVILT	-0.217
HMVTGSIYERKGIYYAIVSYYVDGRRKQKSVSTGLSVKGNKRRALEFLENLKRTYETKESMENMD	-3.16
HMTEKIVFNIDGQTGRIDKILADFMTGTSRSQIQAWVKDGNLMVNDKAVKSNYKVQDGDLLELTIPEPEQ	-0.171
HMEDKFEYQGELKSLIEPTSFSELVSALNVRDTLQAIIDFAMREEDTSGYEELKVRQNDYIQEYLNSIGNF	-1.04
